Patent US20200277359A1

Molecular target: Recombinant CHIKV E2 ectodomain protein (corresponding to the CHIKV-LR2006 strain) (Chikungunya virus strain LR2006)
Test: ELISA on coated E2 ectodomain

OD450: < 0.1 od
Substance: murine CHK-152 (antibody)
